Source: the supplement of paper PMC10567573

B1: PTPN9 (parent)
chain: NKWTVQYNVSPLSWNVAVKFLMAR
B2: CDC25B (parent)
chain: FVDILESDLKDDDAVPPGMESLIS

Variants of: B1
Assay: protein stability index of a GFP-peptide fusion (GPS, HEK-293T) (PSI 1-6); higher = more stable
Details: c terminus: a fixed tail appended
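Further: lentivirally expressed fusions sorted by FACS into six bins by GFP to DsRed ratio, PSI derived from sequencing read proportions per bin multiplied by bin number.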

Protein stability index, by site and new letter:
L21: N 1.72; T 2.9; M 2.35; P 1.26; R 3.22; V 3.01; Y 2.89; S 3.66; W 1.63
R24: S 1.83; M 2.65; A 3.97; C 2.63; N 3.31; K 2.18; G 2.72; D 2.41; H 2.82; W 3.09; F 1.41; T 2.27; L 1.53; Q 2.94; P 1.23; Y 2.66; V 2.97
M22: H 2.36; F 3.6; Y 3.05; N 2.06; C 2.06; I 2.72; D 2.27; G 1.83; T 2.09; P 2.29; K 2.73; R 1.88; E 1.73
A23: H 3.31; Y 2.98; M 3.33; V 2.43; F 2.72; Q 2.55; R 2.58; C 1.95; N 2.54; I 2.44; S 2.48; P 2.3; L 4.22; D 2.21

Variants of: B2
Assay: as above
Details: c terminus: a fixed tail appended

Protein stability index: each site, then its substitutions
V15: C 2.88; N 3.27; F 2.39; S 3.32; L 2.78; M 3.02; E 3.11; I 3; R 2.69; H 3.04; D 3.11; G 3.19; Q 2.87; A 2.78; K 2.96
D13: R 2.1; I 2.08; F 2.38; V 2.39; H 2.7; C 2.56; Y 2.11; E 2.95; T 2.75; G 2.61; S 2.63; W 2.62; K 2.96; P 2.83; A 3.04; M 2.33; Q 2.71; N 2.67; L 2.61
L9: D 3.21; C 3.05; Q 3.18; S 3.36; F 2.85; M 3.03; E 3.39; V 2.93; W 2.97; P 3.62; A 3.09; Y 3.18; R 3.08; T 3.23; H 3.33; G 3.05; N 3.67; I 3.05; K 3.4
V2: I 3.8; G 3.81; P 4.8; Y 4.29; D 5.14; H 4.68; A 4.51; W 3.32; F 4.08; C 3.65; T 4.43; Q 3.98; M 4.76; L 3.73; K 4.67; N 4.96; E 5.29; S 5.04; R 4.31
D11: Y 2.71; T 3.28; I 2.6; V 2.61; N 2.5; K 3.02; Q 2.51; S 2.94; A 3; W 1.8; R 2.25; C 2.25; G 2.78; M 2.6; P 2.68; H 2.37; E 3.17; L 2.25; F 2.52
F1: I 4.33; K 5.17; R 4.96; H 5.4; P 5.46; C 4.49; A 5; Y 3.83; E 5.37; M 4.59; N 5.3; D 5.24; G 5.23; Q 5.4; T 5.31; V 4.08; S 5.39; L 4.81; W 2.5
E6: S 2.54; G 2.31; A 2.04; K 2.84; F 2.68; P 2.37; Y 2.33; I 1.93; R 2.2; W 2.32; L 2.45; C 2.13; M 2.38; N 3.13; V 2.19; Q 2.89; T 2.58; H 2.55; D 2.88
S7: H 2.6; Q 3.19; E 3.79; L 2.21; M 2.6; K 2.6; F 1.9; A 2.79; R 2.47; D 3.67; C 3.23; N 2.57; V 2.17; P 2.83; I 2.3; G 3.22; Y 2.77; T 2.85; W 1.36
A14: N 3.29; D 3.48; V 3.15; E 3.05; R 2.75; S 3.24; G 2.53; Q 2.33; H 2.75; K 2.96; T 3.61; W 2.65; Y 2.49; L 2.8; M 3; C 2.86; I 2.65; F 2.49; P 3.15
D12: M 2.08; K 2.78; Y 2.69; Q 2.62; S 2.96; R 2.16; P 2.66; V 2.56; C 2.5; N 2.67; H 2.88; T 2.65; F 2.19; G 3.01; I 2.21; W 1.83; L 2.9; A 2.84; E 2.93
D8: C 2.15; P 2.31; M 2.55; E 2.89; Y 2.62; W 2.54; L 2.9; I 2.56; F 2.32; Q 2.67; T 2.66; S 2.38; K 2.48; N 3.18; V 2.7; H 2.79; R 2.7; A 2.58; G 2.93
D3: P 2.93; C 2.4; Y 2.15; S 2.96; T 2.39; E 3.46; M 1.92; F 1.6; N 2.81; H 2.91; V 1.86; R 2.12; L 1.93; K 2.65; W 1.91; G 2.83; A 2.65; Q 3.04; I 2.75
L5: H 3.7; K 3.63; I 2.46; V 3.03; M 3.57; A 3.84; S 4.58; C 3.02; R 2.94; Q 3.67; G 3.73; Y 2.8; W 1.85; E 4.46; P 3.75; N 3.81; T 3.51; F 2.35; D 4.61
I4: T 3.37; Q 3.75; K 2; L 2.75; G 3.46; F 2.8; Y 2.52; E 4.52; P 4.03; M 2.47; A 4.18; C 3.91; R 3.11; S 4.05; H 3; D 4.54; V 3.13; N 4.34; W 2.29
K10: T 3.46; V 3; F 2.63; M 3.2; H 2.97; Q 2.97; P 3.1; C 3.11; N 2.87; W 2.43; L 2.45; S 2.52; G 3.5; E 3.33; I 2.72; R 2.75; A 2.77; D 2.91; Y 2.59
